Results as given in patent US20250327057A1, “NOVEL AMINOACYL-TRNA SYNTHETASE VARIANTS FOR GENETIC CODE EXPANSION IN EUKARYOTES” (VERAXA Biotech GmbH, priority 2021, published 2025).
“Also recorded” adds a separate entry of the source.

B1: PylRS A1: M. mazei PylRS mutant L309M, C348G, I405R without Y306A/Y384F (SEQ ID NO: 70) (protein)
chain: MDKKPLNTLISATGLWMSRTGTIHKIKHHEVSRSKIYIEMACGDHLVVNNSRSSRTARALRHHKYRKTCKRCRVSDEDLNKFLTKANEDQTSVKVKVVSAPTRTKKAMPKSVARAPKPLENTEAAQAQPSGSKFSPAIPVSTQESVSVPASVSTSISSISTGATASALVKGNTNPITSMSAPVQASAPALTKSQTDRLEVLLNPKDEISLNSGKPFRELESELLSRRKKDLQQIYAEERENYLGKLEREITRFFVDRGFLEIKSPILIPLEYIERMGIDNDTELSKQIFRVDKNFCLRPMLAPNLYNYMRKLDRALPDPIKIFEIGPCYRKESDGKEHLEEFTMLNFGQMGSGCTRENLESIITDFLNHLGIDFKIVGDSCMVYGDTLDVMHGDLELSSAVVGPRPLDREWGIDKPWIGAGFGLERLLKVKHDFKNIKRAARSESYYNGISTNL
B2: PylRS AF A1: PylRS AF variant with 309M, 348G, 405R (SEQ ID NO: 108) (protein)
chain: MDKKPLNTLISATGLWMSRTGTIHKIKHHEVSRSKIYIEMACGDHLVVNNSRSSRTARALRHHKYRKTCKRCRVSDEDLNKFLTKANEDQTSVKVKVVSAPTRTKKAMPKSVARAPKPLENTEAAQAQPSGSKFSPAIPVSTQESVSVPASVSTSISSISTGATASALVKGNTNPITSMSAPVQASAPALTKSQTDRLEVLLNPKDEISLNSGKPFRELESELLSRRKKDLQQIYAEERENYLGKLEREITRFFVDRGFLEIKSPILIPLEYIERMGIDNDTELSKQIFRVDKNFCLRPMLAPNLANYMRKLDRALPDPIKIFEIGPCYRKESDGKEHLEEFTMLNFGQMGSGCTRENLESIITDFLNHLGIDFKIVGDSCMVFGDTLDVMHGDLELSSAVVGPRPLDREWGIDKPWIGAGFGLERLLKVKHDFKNIKRAARSESYYNGISTNL
B3: PylRS MMA: M. mazei PylRS mutant Y306M, L309M, C348A (SEQ ID NO: 72) (protein)
chain: MDKKPLNTLISATGLWMSRTGTIHKIKHHEVSRSKIYIEMACGDHLVVNNSRSSRTARALRHHKYRKTCKRCRVSDEDLNKFLTKANEDQTSVKVKVVSAPTRTKKAMPKSVARAPKPLENTEAAQAQPSGSKFSPAIPVSTQESVSVPASVSTSISSISTGATASALVKGNTNPITSMSAPVQASAPALTKSQTDRLEVLLNPKDEISLNSGKPFRELESELLSRRKKDLQQIYAEERENYLGKLEREITRFFVDRGFLEIKSPILIPLEYIERMGIDNDTELSKQIFRVDKNFCLRPMLAPNLMNYMRKLDRALPDPIKIFEIGPCYRKESDGKEHLEEFTMLNFAQMGSGCTRENLESIITDFLNHLGIDFKIVGDSCMVYGDTLDVMHGDLELSSAVVGPIPLDREWGIDKPWIGAGFGLERLLKVKHDFKNIKRAARSESYYNGISTNL

What was measured:
[1] = test system: iRFP-EGFP^Y39TAG reporter in HEK293T cells; assay: FFC test of importance of Y306A and Y384F for incorporation of bulky ncAAs, Example 3; assay type: cell-based
Method: These new PylRS variants as obtained from example 1 were tested in HEK293T cells utilizing a fluorescent reporter by fluorescent flow cytometry (FFC). The reporter contains an infrared fluorescent protein (iRFP) fused to enhanced green fluorescent protein (EGFP) which harbors an amber stop codon at position Y39 and is called iRFP-EGFP^Y39TAG. To analyze the incorporation efficiency for each new PylRS variant, transient transfection with different ncAAs and different amounts of ncAAs were performed.
The iRFP and EGFP signals were measured after 24 hours post transfection. Therefore, HEK293T cells were seeded in 24-well plate 16 hours prior to transfection. For the two-plasmid transfection, 1 μg of total DNA was used per well. The DNA was mixed with 50 μl of DMEM medium without Phenol Red and 3 μl of PEI were added. After 10 seconds of vortexing and a short centrifugation step, the DNA mixture was incubated 15 minutes in the hood, before it was added dropwise to the well. A master mix was prepared for all wells whenever suitable. After four hours of incubation, the medium was aspirated and fresh medium with different concentrations of ncAAs was added. The concentration of ncAA was 250 μM. After 20 hours of incubation, the iRFP and EGFP signal was analyzed with a flow cytometer analyzer (LSRFortessa™, BD Biosciences). Stock solutions for all ncAAs were prepared as described previously (Nikic, I., Kang, J. H., Girona, G. E., Aramburu, I. V. & Lemke, E. A. Labeling proteins on live mammalian cells using click chemistry. Nat. Protoc. 10, 780-791 (2015)).
To test, if the mutations Y306A and Y384F are really important for the incorporation of bulky ncAAs, these amino acids were changed back to their original amino acid residues by site directed mutagenesis in the case of the PylRS AF A1 variant.
The FFC test was with TCO*A, TCO-E and in addition with Boc using the variants PylRS A1, PylRS AF, PylRS AF A1 and PylRS MMA. PylRS MMA has the mutations 306M 309M 348A. FIG. 3 illustrates the data obtained by FFC in bar plots for the different ncAAs used. […] These bar plot illustrates on how much higher the incorporation efficiency is for each variant compared to PylRS AF.

[2] = test system: iRFP-EGFP^Y39TAG reporter in HEK293T cells; assay: Incorporation assay for cyclooctyne-lysine (SCO) by FFC, Example 4; assay type: cell-based; details: ncAA SCO, 15.625 μM to 500 μM, FIG. 5
Method: To test the incorporation efficiency of another ncAA by the new variant PylRS A1, an incorporation assay was performed utilizing HEK293T cells. The cells were co-transfected with a plasmid containing NES-PylRS A1 containing as well the corresponding tRNA^Pyl gene together with the reporter plasmid pCI-iRFP-EGFP^Y39TAG-6His (SEQ ID NO: 97). Different concentrations of SCO were added to the growth medium 4 hours after the transfection of the cells ranging from 15.625 μM to 500 μM SCO. After 20 hours of incubation, the iRFP and EGFP signal was analyzed with a flow cytometer analyzer (LSRFortessa™, BD Biosciences) as mentioned above.

Molecule | ability to incorporate bulky ncAAs ([1]; TCO*A, TCO-E, Boc, HEK293T) | incorporation efficiency relative to PylRS AF ([1]; ncAA Boc) | incorporation efficiency (mean GFP/mean iRFP), ranking among variants ([1]; ncAA Boc, FIG. 3C) | incorporation efficiency (mean GFP/mean iRFP), ranking among variants ([1]; ncAA TCO*A, FIG. 3B) | incorporation efficiency relative to PylRS AF ([1]; ncAA TCO*A, independent of the ncAA concentration used) [×] | incorporation efficiency (mean GFP/mean iRFP), ranking among variants ([1]; ncAA TCO-E, FIG. 3A) | incorporation efficiency relative to PylRS AF ([1]; ncAA TCO-E, depending on the concentration used) | incorporation of SCO (EGFP signal by FFC) [2] | incorporation efficiency relative to PylRS AF ([1]; ncAA TCO-E)
B1 | better synthetase for bulky ncAAs; also recorded: able to incorporate bulky ncAAs | up to 4.5 × | highest incorporation efficiency | best incorporation | 1.2 | highest incorporation efficiency | up to 30 times | can incorporate SCO efficiently | 
B2 |  |  |  |  |  | highest incorporation efficiency |  |  | 
B3 |  |  |  |  |  |  |  |  | up to 10 ×
